Results taken from patent publication US20250161472A1 (BIOATLA, published 2025).

B1: BAP048 conjugated to monomethyl auristatin E (BAP048 ADC) (other)
VL: AIQLTQSPSSLSASVGDRVTITCSATSSVSYMHWYLQKPGQSPQLLIYGTSNLASGVPDRFSGSGSGTDFTLKISRVEAEDVGVYYCQQRSSYPFTFGQGTKVEIK
VH: EVQLVQSGAEVKKPGESLRISCKGSGYTFTEYTMHWVRQAPGQGLEWMGGINTNNGGTGYNQKFKGRVTISADKSISTAYLQWSSLKASDTAMYYCAHGSLYSYGNSYFDYWGQGTLVTVSS
modifications: MMAE drug conjugate (site, chain and linker not stated in Example 5)
B2: BAP048.7-humC02D09-CAB )#3947) (antibody, V domains shown)
VH: QVQLVQSGAEVKKPGASVKVSCKASGYTFTEYTMHWVRQARGQRLEWIGGINTNNGGTGYNQKFKGRVTISADKSISTAYLQWSSLKASDTAMYYCAHGSLYSYGNSYFDYWGQGTLVTVSS
VL: AIQLTQSPSSLSASVGDRVTITCSATSSVSYMHWYQQKPGQAPRLLIYGTSNLASGVPDRFSGSGSGTDFTLKISRVEAEDVGVYYCQQRSSYPFTFGQGTKVEIK
notes: The sheet says 'mAb'; also called BAP048.7-C02D09; ROR2-CAB1-ADC (as conjugate)
B3: BAP048.7-humA03F01-CAB (#3948) (antibody, V domains shown)
VH: EVQLVQSGAEVKKPGESLRISCKGSGYTFTEYTMHWIRQSPSRGLEWLGGINTNNGGTGYNQKFKGRVTISADKSISTAYLQWSSLKASDTAMYYCAHGSLYSYGNSYFDYWGQGTLVTVSS
VL: AIQLTQSPSSLSASVGDRVTITCSATSSVSYMHWYLQKPGQSPQLLIYGTSNLASGVPDRFSGSGSGTDFTLKISRVEAEDVGVYYCQQRSSYPFTFGQGTKVEIK
notes: The sheet says 'mAb'; also called BAP048.7-humA03F01 (#3948); BAP048.7-A03F01
B4: HC-N106E (antibody, V domains shown)
VH: EVQLQQSGPELVKPGASVKISCKTSGYTFTEYTMHWMKQSHRKSLEWIGGINTNNGGTGYNQKFKGKATLTVDKSSSTAYMELRSLTSEDSAVYFCARGSLYSYGESYFDYWGQGTLVTVSS
VL: QIVLTQSPAIMSASPGEKVTITCSATSSVSYMHWFQQKPGTSPKLWIYGTSNLASGVPARFSGSGSGTSYSLTISRMEAEDAATYYCQQRSSYPFTFGQGTKVEIK
B5: LC-F097D (antibody, V domains shown)
VH: EVQLQQSGPELVKPGASVKISCKTSGYTFTEYTMHWMKQSHRKSLEWIGGINTNNGGTGYNQKFKGKATLTVDKSSSTAYMELRSLTSEDSAVYFCARGSLYSYGNSYFDYWGQGTLVTVSS
VL: QIVLTQSPAIMSASPGEKVTITCSATSSVSYMHWFQQKPGTSPKLWIYGTSNLASGVPARFSGSGSGTSYSLTISRMEAEDAATYYCQQRSSYPFTDGQGTKVEIK
B6: LC-Y031D (antibody, V domains shown)
VH: EVQLQQSGPELVKPGASVKISCKTSGYTFTEYTMHWMKQSHRKSLEWIGGINTNNGGTGYNQKFKGKATLTVDKSSSTAYMELRSLTSEDSAVYFCARGSLYSYGNSYFDYWGQGTLVTVSS
VL: QIVLTQSPAIMSASPGEKVTITCSATSSVSDMHWFQQKPGTSPKLWIYGTSNLASGVPARFSGSGSGTSYSLTISRMEAEDAATYYCQQRSSYPFTFGQGTKVEIK
notes: CPE single point mutant of parent VL 48.6-LC-WT
B7: LC-S092V (antibody, V domains shown)
VH: EVQLQQSGPELVKPGASVKISCKTSGYTFTEYTMHWMKQSHRKSLEWIGGINTNNGGTGYNQKFKGKATLTVDKSSSTAYMELRSLTSEDSAVYFCARGSLYSYGNSYFDYWGQGTLVTVSS
VL: QIVLTQSPAIMSASPGEKVTITCSATSSVSYMHWFQQKPGTSPKLWIYGTSNLASGVPARFSGSGSGTSYSLTISRMEAEDAATYYCQQRSVYPFTFGQGTKVEIK
notes: as for B6
B8: LC-Y031C (antibody, V domains shown)
VH: EVQLQQSGPELVKPGASVKISCKTSGYTFTEYTMHWMKQSHRKSLEWIGGINTNNGGTGYNQKFKGKATLTVDKSSSTAYMELRSLTSEDSAVYFCARGSLYSYGNSYFDYWGQGTLVTVSS
VL: QIVLTQSPAIMSASPGEKVTITCSATSSVSCMHWFQQKPGTSPKLWIYGTSNLASGVPARFSGSGSGTSYSLTISRMEAEDAATYYCQQRSSYPFTFGQGTKVEIK
notes: as for B6
B9: LC-S092D (antibody, V domains shown)
VH: EVQLQQSGPELVKPGASVKISCKTSGYTFTEYTMHWMKQSHRKSLEWIGGINTNNGGTGYNQKFKGKATLTVDKSSSTAYMELRSLTSEDSAVYFCARGSLYSYGNSYFDYWGQGTLVTVSS
VL: QIVLTQSPAIMSASPGEKVTITCSATSSVSYMHWFQQKPGTSPKLWIYGTSNLASGVPARFSGSGSGTSYSLTISRMEAEDAATYYCQQRSDYPFTFGQGTKVEIK
notes: as for B6
B10: LC-S030D (antibody, V domains shown)
VH: EVQLQQSGPELVKPGASVKISCKTSGYTFTEYTMHWMKQSHRKSLEWIGGINTNNGGTGYNQKFKGKATLTVDKSSSTAYMELRSLTSEDSAVYFCARGSLYSYGNSYFDYWGQGTLVTVSS
VL: QIVLTQSPAIMSASPGEKVTITCSATSSVDYMHWFQQKPGTSPKLWIYGTSNLASGVPARFSGSGSGTSYSLTISRMEAEDAATYYCQQRSSYPFTFGQGTKVEIK
notes: as for B6
B11: LC-T096D (antibody, V domains shown)
VH: EVQLQQSGPELVKPGASVKISCKTSGYTFTEYTMHWMKQSHRKSLEWIGGINTNNGGTGYNQKFKGKATLTVDKSSSTAYMELRSLTSEDSAVYFCARGSLYSYGNSYFDYWGQGTLVTVSS
VL: QIVLTQSPAIMSASPGEKVTITCSATSSVSYMHWFQQKPGTSPKLWIYGTSNLASGVPARFSGSGSGTSYSLTISRMEAEDAATYYCQQRSSYPFDFGQGTKVEIK
notes: as for B6

What was measured:
[1] = target: human ROR2 expressed on the surface of HEK293 cells (human, UniProt Q01974 34-943); assay: cell-based or functional assay
[2] = target: T1, human ROR2 (receptor tyrosine kinase-like orphan receptor 2) (human, UniProt Q01974 34-403, limits assumed); assay: plate binding assay (ELISA per Example 1) on ROR2 at pH 6.0 and pH 7.4, 40 ng mAb, untreated and after 1 h at 60°C
T1 construct: Antigen of the ELISA, SPR and pH titration assays; also called hROR2

[3] = target: human ROR2 (receptor tyrosine kinase-like orphan receptor 2) (human) (UniProt Q01974); assay: affinity ELISA on human ROR2, pH 7.4
[4] = target: human ROR2 (receptor tyrosine kinase-like orphan receptor 2) (human) (UniProt Q01974); assay: affinity ELISA on human ROR2, signal at pH 6.0 over pH 7.4
[5] = target: human ROR2 (receptor tyrosine kinase-like orphan receptor 2) (human) (UniProt Q01974); assay: affinity ELISA on human ROR2, pH 6.0
[6] = target: T1, human ROR2 (receptor tyrosine …); assay: affinity ELISA on human ROR2, pH 7.4; set-up: unit not given here
[7] = target: T1, human ROR2 (receptor tyrosine …); assay: affinity ELISA on human ROR2, pH 6.0; set-up: unit not given here

Sequence of human ROR2 (receptor tyrosine kinase-like orphan receptor 2) (human) (Q01974 34-403 limits assumed): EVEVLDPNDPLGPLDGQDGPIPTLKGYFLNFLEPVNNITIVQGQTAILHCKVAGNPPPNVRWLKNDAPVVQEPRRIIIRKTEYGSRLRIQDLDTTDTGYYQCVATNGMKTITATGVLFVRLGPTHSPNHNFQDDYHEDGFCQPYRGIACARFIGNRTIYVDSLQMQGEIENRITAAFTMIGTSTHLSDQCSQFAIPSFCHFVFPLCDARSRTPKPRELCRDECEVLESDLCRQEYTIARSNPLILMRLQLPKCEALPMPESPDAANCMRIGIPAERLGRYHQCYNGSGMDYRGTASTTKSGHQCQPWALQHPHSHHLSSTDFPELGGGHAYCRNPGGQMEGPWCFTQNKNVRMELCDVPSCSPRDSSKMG
T1 sequence (Q01974 34-403 limits assumed): as above
Sequence of human ROR2 expressed on the surface of HEK293 cells (Q01974 34-943): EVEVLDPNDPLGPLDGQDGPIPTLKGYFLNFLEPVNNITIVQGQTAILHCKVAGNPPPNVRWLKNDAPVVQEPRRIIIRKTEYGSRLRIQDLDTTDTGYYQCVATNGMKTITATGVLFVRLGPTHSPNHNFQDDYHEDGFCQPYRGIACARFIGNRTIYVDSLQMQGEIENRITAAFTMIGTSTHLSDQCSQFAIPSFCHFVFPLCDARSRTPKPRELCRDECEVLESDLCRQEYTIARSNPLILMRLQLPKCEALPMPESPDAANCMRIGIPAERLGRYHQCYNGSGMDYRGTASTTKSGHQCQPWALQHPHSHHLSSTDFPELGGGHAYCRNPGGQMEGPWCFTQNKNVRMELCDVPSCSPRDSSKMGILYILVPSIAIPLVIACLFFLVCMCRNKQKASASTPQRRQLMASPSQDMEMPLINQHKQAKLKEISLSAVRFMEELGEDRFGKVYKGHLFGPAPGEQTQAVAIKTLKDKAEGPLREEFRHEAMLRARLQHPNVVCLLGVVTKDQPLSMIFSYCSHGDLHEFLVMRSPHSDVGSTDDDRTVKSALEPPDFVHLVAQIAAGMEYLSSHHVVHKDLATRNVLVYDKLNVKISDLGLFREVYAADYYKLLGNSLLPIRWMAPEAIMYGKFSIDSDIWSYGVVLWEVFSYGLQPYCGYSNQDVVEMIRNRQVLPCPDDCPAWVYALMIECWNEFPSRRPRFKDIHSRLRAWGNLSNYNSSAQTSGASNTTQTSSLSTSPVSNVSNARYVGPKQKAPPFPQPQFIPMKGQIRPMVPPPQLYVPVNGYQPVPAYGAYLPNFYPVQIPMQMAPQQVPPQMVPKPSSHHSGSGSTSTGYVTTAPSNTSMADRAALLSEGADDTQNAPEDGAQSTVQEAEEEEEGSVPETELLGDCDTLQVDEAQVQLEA

Binder	Affinity ELISA, pH 7.4 [6]	Affinity ELISA, pH 6.0 [7]	further results
B1	–	–	cell killing, difference of effective concentration between pH 7.4 and pH 6.0 [1]: ~10 fold
B2	–	–	binding result [2]: binds
B3	–	–	binding result [2]: binds
B4	–	–	Affinity ELISA, pH 7.4 [3]: 0.115; ratio, pH 6.0/7.4 [4]: 1.95; Affinity ELISA, pH 6.0 [5]: 0.224
B5	–	–	Affinity ELISA, pH 7.4 [3]: 0.107; ratio, pH 6.0/7.4 [4]: 1.77; Affinity ELISA, pH 6.0 [5]: 0.19
B6	0.405	0.911	–
B7	1.18	1.23	–
B8	0.7	1.34	–
B9	1.12	1.13	–
B10	0.252	0.733	–
B11	0.474	0.755	–
